Measured values published in patent EP4663654A1 (Hangzhou Sciwind Biosciences Co., Ltd., dated 2025).
Starred links: 1 amine or outer side, 2 acyl side, 3 side chain; linkers in the order of their positions; H or OH if unused. Non-standard residues stand in square brackets, D forms with d. Primed or numbered codes have the meaning given here. *: point of attachment. C20 diacid = O=C(O)CCCCCCCCCCCCCCCCCCC(=O)*; γGlu = O=C(O)[C@H](CCC(=O)[*:2])N[*:1]; βAsp = O=C(O)[C@H](CC(=O)[*:2])N[*:1]; Hyp = O=C(O)[C@@H]1C[C@@H](O)CN1; Inp′ = not defined here; Trx′ = not defined here; AEEA = NCCOCCOCC(=O)O

T1: human amylin receptor (AMY3) on CHO-K1/Ga15/AMY3 amylin receptor/CRE-luc cells (human, UniProt P30988 25-474; O60896 24-148)
T1 sequence (looked up) 1: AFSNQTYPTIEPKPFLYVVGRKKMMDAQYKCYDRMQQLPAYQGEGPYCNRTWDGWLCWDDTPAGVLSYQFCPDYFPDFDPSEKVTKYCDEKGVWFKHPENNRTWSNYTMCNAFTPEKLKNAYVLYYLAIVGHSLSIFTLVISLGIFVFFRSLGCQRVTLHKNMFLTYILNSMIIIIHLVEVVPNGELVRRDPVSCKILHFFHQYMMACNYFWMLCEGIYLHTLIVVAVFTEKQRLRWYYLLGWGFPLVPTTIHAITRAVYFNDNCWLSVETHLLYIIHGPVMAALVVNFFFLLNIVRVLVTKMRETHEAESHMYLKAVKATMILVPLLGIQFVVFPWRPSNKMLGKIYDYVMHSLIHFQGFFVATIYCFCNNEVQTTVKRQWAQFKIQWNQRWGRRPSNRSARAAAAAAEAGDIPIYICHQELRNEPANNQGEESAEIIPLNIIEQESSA
T1 sequence (looked up) 2: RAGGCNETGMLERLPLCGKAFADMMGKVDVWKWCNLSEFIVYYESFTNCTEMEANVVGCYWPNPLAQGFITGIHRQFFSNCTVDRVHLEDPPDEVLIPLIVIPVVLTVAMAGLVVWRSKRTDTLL

B1: polypeptide derivative M16 (peptide)
peptide: {C20 diacid-γGlu-AEEA-AEEA}-ASQLSTAATQRLADFLRHFTDRDRDILPPTNVGSNTP-NH2
SMILES: CC[C@H](C)[C@H](NC(=O)[C@H](CC(=O)O)NC(=O)[C@H](CCCNC(=N)N)NC(=O)[C@H](CC(=O)O)NC(=O)[C@H](CCCNC(=N)N)NC(=O)[C@H](CC(=O)O)NC(=O)[C@@H](NC(=O)[C@H](Cc1ccccc1)NC(=O)[C@H](Cc1c[nH]cn1)NC(=O)[C@H](CCCNC(=N)N)NC(=O)[C@H](CC(C)C)NC(=O)[C@H](Cc1ccccc1)NC(=O)[C@H](CC(=O)O)NC(=O)[C@H](C)NC(=O)[C@H](CC(C)C)NC(=O)[C@H](CCCNC(=N)N)NC(=O)[C@H](CCC(N)=O)NC(=O)[C@@H](NC(=O)[C@H](C)NC(=O)[C@H](C)NC(=O)[C@@H](NC(=O)[C@H](CO)NC(=O)[C@H](CC(C)C)NC(=O)[C@H](CCC(N)=O)NC(=O)[C@H](CO)NC(=O)[C@H](C)NC(=O)COCCOCCNC(=O)COCCOCCNC(=O)CC[C@H](NC(=O)CCCCCCCCCCCCCCCCCCC(=O)O)C(=O)O)[C@@H](C)O)[C@@H](C)O)[C@@H](C)O)C(=O)N[C@@H](CC(C)C)C(=O)N1CCC[C@H]1C(=O)N1CCC[C@H]1C(=O)N[C@H](C(=O)N[C@@H](CC(N)=O)C(=O)N[C@H](C(=O)NCC(=O)N[C@@H](CO)C(=O)N[C@@H](CC(N)=O)C(=O)N[C@H](C(=O)N1CCC[C@H]1C(N)=O)[C@@H](C)O)C(C)C)[C@@H](C)O
B2: polypeptide derivative M8 (peptide)
peptide: {C20 diacid-γGlu}-ASQLSTAVTQRLADFLRHFTDRDRDILPPTNVGSNTP-NH2
SMILES: CC[C@H](C)[C@H](NC(=O)[C@H](CC(=O)O)NC(=O)[C@H](CCCNC(=N)N)NC(=O)[C@H](CC(=O)O)NC(=O)[C@H](CCCNC(=N)N)NC(=O)[C@H](CC(=O)O)NC(=O)[C@@H](NC(=O)[C@H](Cc1ccccc1)NC(=O)[C@H](Cc1c[nH]cn1)NC(=O)[C@H](CCCNC(=N)N)NC(=O)[C@H](CC(C)C)NC(=O)[C@H](Cc1ccccc1)NC(=O)[C@H](CC(=O)O)NC(=O)[C@H](C)NC(=O)[C@H](CC(C)C)NC(=O)[C@H](CCCNC(=N)N)NC(=O)[C@H](CCC(N)=O)NC(=O)[C@@H](NC(=O)[C@@H](NC(=O)[C@H](C)NC(=O)[C@@H](NC(=O)[C@H](CO)NC(=O)[C@H](CC(C)C)NC(=O)[C@H](CCC(N)=O)NC(=O)[C@H](CO)NC(=O)[C@H](C)NC(=O)CC[C@H](NC(=O)CCCCCCCCCCCCCCCCCCC(=O)O)C(=O)O)[C@@H](C)O)C(C)C)[C@@H](C)O)[C@@H](C)O)C(=O)N[C@@H](CC(C)C)C(=O)N1CCC[C@H]1C(=O)N1CCC[C@H]1C(=O)N[C@H](C(=O)N[C@@H](CC(N)=O)C(=O)N[C@H](C(=O)NCC(=O)N[C@@H](CO)C(=O)N[C@@H](CC(N)=O)C(=O)N[C@H](C(=O)N1CCC[C@H]1C(N)=O)[C@@H](C)O)C(C)C)[C@@H](C)O
B3: polypeptide derivative M12 (peptide)
peptide: {C20 diacid-βAsp}-ASQLSTAATQRLADFLRHFTDRDRDILPPTNVGSNTP-NH2
SMILES: CC[C@H](C)[C@H](NC(=O)[C@H](CC(=O)O)NC(=O)[C@H](CCCNC(=N)N)NC(=O)[C@H](CC(=O)O)NC(=O)[C@H](CCCNC(=N)N)NC(=O)[C@H](CC(=O)O)NC(=O)[C@@H](NC(=O)[C@H](Cc1ccccc1)NC(=O)[C@H](Cc1c[nH]cn1)NC(=O)[C@H](CCCNC(=N)N)NC(=O)[C@H](CC(C)C)NC(=O)[C@H](Cc1ccccc1)NC(=O)[C@H](CC(=O)O)NC(=O)[C@H](C)NC(=O)[C@H](CC(C)C)NC(=O)[C@H](CCCNC(=N)N)NC(=O)[C@H](CCC(N)=O)NC(=O)[C@@H](NC(=O)[C@H](C)NC(=O)[C@H](C)NC(=O)[C@@H](NC(=O)[C@H](CO)NC(=O)[C@H](CC(C)C)NC(=O)[C@H](CCC(N)=O)NC(=O)[C@H](CO)NC(=O)[C@H](C)NC(=O)C[C@H](NC(=O)CCCCCCCCCCCCCCCCCCC(=O)O)C(=O)O)[C@@H](C)O)[C@@H](C)O)[C@@H](C)O)C(=O)N[C@@H](CC(C)C)C(=O)N1CCC[C@H]1C(=O)N1CCC[C@H]1C(=O)N[C@H](C(=O)N[C@@H](CC(N)=O)C(=O)N[C@H](C(=O)NCC(=O)N[C@@H](CO)C(=O)N[C@@H](CC(N)=O)C(=O)N[C@H](C(=O)N1CCC[C@H]1C(N)=O)[C@@H](C)O)C(C)C)[C@@H](C)O
B4: polypeptide derivative M13 (peptide)
peptide: {C20 diacid}-DASQLSTAATQRLADFLRHFTDRDRDILPPTNVGSNTP-NH2
SMILES: CC[C@H](C)[C@H](NC(=O)[C@H](CC(=O)O)NC(=O)[C@H](CCCNC(=N)N)NC(=O)[C@H](CC(=O)O)NC(=O)[C@H](CCCNC(=N)N)NC(=O)[C@H](CC(=O)O)NC(=O)[C@@H](NC(=O)[C@H](Cc1ccccc1)NC(=O)[C@H](Cc1c[nH]cn1)NC(=O)[C@H](CCCNC(=N)N)NC(=O)[C@H](CC(C)C)NC(=O)[C@H](Cc1ccccc1)NC(=O)[C@H](CC(=O)O)NC(=O)[C@H](C)NC(=O)[C@H](CC(C)C)NC(=O)[C@H](CCCNC(=N)N)NC(=O)[C@H](CCC(N)=O)NC(=O)[C@@H](NC(=O)[C@H](C)NC(=O)[C@H](C)NC(=O)[C@@H](NC(=O)[C@H](CO)NC(=O)[C@H](CC(C)C)NC(=O)[C@H](CCC(N)=O)NC(=O)[C@H](CO)NC(=O)[C@H](C)NC(=O)[C@H](CC(=O)O)NC(=O)CCCCCCCCCCCCCCCCCCC(=O)O)[C@@H](C)O)[C@@H](C)O)[C@@H](C)O)C(=O)N[C@@H](CC(C)C)C(=O)N1CCC[C@H]1C(=O)N1CCC[C@H]1C(=O)N[C@H](C(=O)N[C@@H](CC(N)=O)C(=O)N[C@H](C(=O)NCC(=O)N[C@@H](CO)C(=O)N[C@@H](CC(N)=O)C(=O)N[C@H](C(=O)N1CCC[C@H]1C(N)=O)[C@@H](C)O)C(C)C)[C@@H](C)O
B5: polypeptide derivative M9 (peptide)
peptide: {C20 diacid-γGlu}-ASQLSTAVLQRLADFLRHSSNNLKPILPPTNVGSNT[Hyp]-NH2
SMILES: CC[C@H](C)[C@H](NC(=O)[C@@H]1CCCN1C(=O)[C@H](CCCCN)NC(=O)[C@H](CC(C)C)NC(=O)[C@H](CC(N)=O)NC(=O)[C@H](CC(N)=O)NC(=O)[C@H](CO)NC(=O)[C@H](CO)NC(=O)[C@H](Cc1c[nH]cn1)NC(=O)[C@H](CCCNC(=N)N)NC(=O)[C@H](CC(C)C)NC(=O)[C@H](Cc1ccccc1)NC(=O)[C@H](CC(=O)O)NC(=O)[C@H](C)NC(=O)[C@H](CC(C)C)NC(=O)[C@H](CCCNC(=N)N)NC(=O)[C@H](CCC(N)=O)NC(=O)[C@H](CC(C)C)NC(=O)[C@@H](NC(=O)[C@H](C)NC(=O)[C@@H](NC(=O)[C@H](CO)NC(=O)[C@H](CC(C)C)NC(=O)[C@H](CCC(N)=O)NC(=O)[C@H](CO)NC(=O)[C@H](C)NC(=O)CC[C@H](NC(=O)CCCCCCCCCCCCCCCCCCC(=O)O)C(=O)O)[C@@H](C)O)C(C)C)C(=O)N[C@@H](CC(C)C)C(=O)N1CCC[C@H]1C(=O)N1CCC[C@H]1C(=O)N[C@H](C(=O)N[C@@H](CC(N)=O)C(=O)N[C@H](C(=O)NCC(=O)N[C@@H](CO)C(=O)N[C@@H](CC(N)=O)C(=O)N[C@H](C(=O)N1C[C@H](O)C[C@H]1C(N)=O)[C@@H](C)O)C(C)C)[C@@H](C)O
B6: polypeptide derivative M11 (peptide)
peptide: {C20 diacid}-EASQLSTAATQRLADFLRHFTDRDRDILPPTNVGSNTP-NH2
SMILES: CC[C@H](C)[C@H](NC(=O)[C@H](CC(=O)O)NC(=O)[C@H](CCCNC(=N)N)NC(=O)[C@H](CC(=O)O)NC(=O)[C@H](CCCNC(=N)N)NC(=O)[C@H](CC(=O)O)NC(=O)[C@@H](NC(=O)[C@H](Cc1ccccc1)NC(=O)[C@H](Cc1c[nH]cn1)NC(=O)[C@H](CCCNC(=N)N)NC(=O)[C@H](CC(C)C)NC(=O)[C@H](Cc1ccccc1)NC(=O)[C@H](CC(=O)O)NC(=O)[C@H](C)NC(=O)[C@H](CC(C)C)NC(=O)[C@H](CCCNC(=N)N)NC(=O)[C@H](CCC(N)=O)NC(=O)[C@@H](NC(=O)[C@H](C)NC(=O)[C@H](C)NC(=O)[C@@H](NC(=O)[C@H](CO)NC(=O)[C@H](CC(C)C)NC(=O)[C@H](CCC(N)=O)NC(=O)[C@H](CO)NC(=O)[C@H](C)NC(=O)[C@H](CCC(=O)O)NC(=O)CCCCCCCCCCCCCCCCCCC(=O)O)[C@@H](C)O)[C@@H](C)O)[C@@H](C)O)C(=O)N[C@@H](CC(C)C)C(=O)N1CCC[C@H]1C(=O)N1CCC[C@H]1C(=O)N[C@H](C(=O)N[C@@H](CC(N)=O)C(=O)N[C@H](C(=O)NCC(=O)N[C@@H](CO)C(=O)N[C@@H](CC(N)=O)C(=O)N[C@H](C(=O)N1CCC[C@H]1C(N)=O)[C@@H](C)O)C(C)C)[C@@H](C)O

Target: T1, human amylin receptor (AMY3) on …
Assay: cell-based or functional assay

Row | Binder | EC50/nM, CRE-luciferase reporter in amylin receptor/CRE-luc CHO cells [nM] | Relative activity (the EC50 ratio of Cagrilintide to the compound) [%]
1 | B1 | 0.042 | 58
2 | B2 | 0.049 | 53
3 | {C20 diacid-Inp′}-ASQLSTAATQRLADFLRHFTDRDRDILPPTNVGSNTP-NH2 [polypeptide derivative M15] | 0.03 | 81
4 | B3 | 0.034 | 78
5 | B4 | 0.034 | 78
6 | {C20 diacid-Trx′}-ASQLSTAATQRLADFLRHFTDRDRDILPPTNVGSNTP-NH2 (reading uncertain) [polypeptide derivative M14] | 0.018 | 136
7 | B5 | 0.026 | 100
8 | B6 | 0.004 | 110
